# Source: PMC4891106
# Molecular target: Cbl (UniProt P22681)
# Test: anti-CD93 co-IP, anti-Cbl blot
# Details: reference: wild type CD93 (res85); sites Y628,Y644
substance,measurement,value
CD93 (from UniProt Q9NPY3) Y628F/Y644F (res85Y1Y2),binding against the reference,lost
